Columns and labels:
SARS-2 HexaPro S2 [1] = biological target: T1, SARS-2 HexaPro S2 (SARS-CoV-2 Wuhan-Hu-1, HexaPro, proline substitution at position 817 | proline substitution at position 892 | …); experiment: BLI + SPR; conditions: both partners purified
SARS-2 HexaPro S2 [2] = biological target: T1, SARS-2 HexaPro S2; experiment: cryo-EM structure; conditions: both partners purified
SARS-2 HexaPro spike = SARS-2 HexaPro spike (SARS-CoV-2 Wuhan-Hu-1, HexaPro; T4 …, proline substitution at position 817 | proline substitution at position 892 | …); experiment: BLI; conditions: both partners purified
[3] = biological target: T2, SARS-2 spike (2P-stabilized ectodomain with foldon) (SARS-CoV-2 Wuhan-Hu-1, UniProt P0DTC2, K986 substituted with proline | V987 substituted with proline); experiment: ELISA
[4] = biological target: Authentic wild-type SARS-2 spike, full-length unstabilized, on the cell surface (Severe acute respiratory syndrome …, UniProt P0DTC2); experiment: flow cytometry on cells; conditions: one partner purified
[5] = biological target: SARS-2 4P-DS spike (4P with an additional stabilizing disulfide) (SARS-CoV-2 Wuhan-Hu-1, UniProt P0DTC2, disulfide bond between amino acids 965 and 1003 (965) | disulfide bond between …, disulfide bond between amino acids 965 and 1003; Alexa Fluor 647 label in the yeast display experiment); experiment: SPR; conditions: both partners purified
[6] = biological target: T2, SARS-2 spike (2P-stabilized ectodomain …); experiment: far-Western, overlay or dot blot; conditions: both partners purified

B1: 3A3 Fab (Fab, V domains shown)
VH: QVQLQQSGAELLKPGASVKLSCTASGFNIKDTYIHWLKQRPEQGLEWIGRIGPAIGNTIYAPKFQGKATITTDTSSNTAYLQLSSLTSEDTAVYYCARYYGSSYYYFDYWGQGTTLTVSS
VL: DIVMTQSAPSVPVTPGESVSISCRSSKSLLHSNGNTYLYWFLQRPGQSPQLLIYRMSNLASGVPDRFSGSGSGTAFTLRISRVEAEDVGVYYCMQYLEYPLTFGAGTKLELK
Kd (SARS-2 HexaPro S2 [1]): ~0.003 µM | stoichiometry N (SARS-2 HexaPro S2 [2]): 1 Fab per S2 protomer

B2: Antibody 3A3, full-length (mouse variable region-human IgG1 constant region chimera) (antibody, V domains shown)
VH: QVQLQQSGAELLKPGASVKLSCTASGFNIKDTYIHWLKQRPEQGLEWIGRIGPAIGNTIYAPKFQGKATITTDTSSNTAYLQLSSLTSEDTAVYYCARYYGSSYYYFDYWGQGTTLTVSS
VL: DIVMTQSAPSVPVTPGESVSISCRSSKSLLHSNGNTYLYWFLQRPGQSPQLLIYRMSNLASGVPDRFSGSGSGTAFTLRISRVEAEDVGVYYCMQYLEYPLTFGAGTKLELK
kon (SARS-2 HexaPro spike): 800000 ± 100000 M⁻¹ s⁻¹ | fold worse ELISA EC50 (stressed against fresh) ([3]; both partners purified): ~150 fold | binding result [4]: no binding (tested: ~1–300 nM)

B3: Antibody RAY53, full-length human IgG1 (antibody, V domains shown)
VH: QVQLVQSGAVVLKPGASVKLSCKASGFNIKNTYIHWLKQAPGQRLEWIGRIGPAIGNTIYAPKFQGKATITTDTSASTAYLELSSLRSEDTAVYYCARYYGSSYYYLDYWGQGTTVTVSS
VL: DIVMTQSPLSVPVTPGEPVSISCRSSKSLLHSNGNTYLYWFLQKPGQSPQLLIARMSTLASGVPDRFSGSGSGTAFTLKISRVEAEDVGVYYCMQYLEYPLTFGAGTKLEIK
binding result ([3]; both partners purified): binds | Kd [5]: 0.1 ± 0.016 µM | Kd [4]: 0.1 ± 0.02 µM

B4: RAY53 Fab (Fab, V domains shown)
VH: QVQLVQSGAVVLKPGASVKLSCKASGFNIKNTYIHWLKQAPGQRLEWIGRIGPAIGNTIYAPKFQGKATITTDTSASTAYLELSSLRSEDTAVYYCARYYGSSYYYLDYWGQGTTVTVSS
VL: DIVMTQSPLSVPVTPGEPVSISCRSSKSLLHSNGNTYLYWFLQKPGQSPQLLIARMSTLASGVPDRFSGSGSGTAFTLKISRVEAEDVGVYYCMQYLEYPLTFGAGTKLEIK
Kd [5]: 1.3 ± 0.2 µM

B5: Antibody 3E11, full-length (mouse variable region-human IgG1 constant region chimera) (antibody, V domains shown)
VH: EVQLQQSGTVLARPGASVKMSCKASGYSFTNYWVHWVKQRPGQGLEWIGAIYPGNGDTTYNQKFKDKAKLTAVTSTSSAYMDLSSLTSEDSAVYYCTRRANYGSRYDYWGQGTTLTVSS
VL: DIVMTQSTSSLSASLGDRVTISCRASQGINNYLNWYQQKPDGTVKLLIYHTSRLHSGVPSRFSGSGSGTDYSLTISNLEQEDIATYFCQQGDTLPYTFGGGTKLEIK
notes: IgG1
binding result [6]: binds

B6: 3E11 scFv displayed on M13 phage (scFv, V domains shown)
VH: EVQLQQSGTVLARPGASVKMSCKASGYSFTNYWVHWVKQRPGQGLEWIGAIYPGNGDTTYNQKFKDKAKLTAVTSTSSAYMDLSSLTSEDSAVYYCTRRANYGSRYDYWGQGTTLTVSS
VL: DIVMTQSTSSLSASLGDRVTISCRASQGINNYLNWYQQKPDGTVKLLIYHTSRLHSGVPSRFSGSGSGTDYSLTISNLEQEDIATYFCQQGDTLPYTFGGGTKLEIK
notes: VL-linker-VH order
binding result ([3]; one partner purified): binds

From paper PMC10030117 (eLife, 2023)
